T1: FcγRIIa H (FcγRIIa type H, His at position 131), extracellular domain with C-terminal His tag (human, UniProt P12318 34-217)
T1 construct: extracellular domain; also called 2aH; FcgRIIa H; not shown: His tag at the C terminus
T1 sequence (looked up): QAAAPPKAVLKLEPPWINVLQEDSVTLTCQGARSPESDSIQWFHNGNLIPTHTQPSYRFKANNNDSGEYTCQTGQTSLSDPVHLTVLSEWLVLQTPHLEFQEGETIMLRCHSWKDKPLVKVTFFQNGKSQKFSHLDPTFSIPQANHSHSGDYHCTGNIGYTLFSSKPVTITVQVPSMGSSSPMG

T2: FcγRIIb extracellular domain with C-terminal His tag (human, UniProt P31994 43-217)
T2 construct: extracellular domain; also called FcgRIIb; 2b; not shown: His tag at the C terminus
T2 sequence (looked up): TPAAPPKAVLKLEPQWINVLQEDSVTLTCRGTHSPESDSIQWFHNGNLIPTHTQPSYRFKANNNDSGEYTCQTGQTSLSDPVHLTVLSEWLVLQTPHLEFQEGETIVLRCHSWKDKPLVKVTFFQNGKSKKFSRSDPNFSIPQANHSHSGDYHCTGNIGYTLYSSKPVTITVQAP

T3: FcγRIIb, extracellular domain with C-terminal His tag (human, UniProt P31994 43-217)
T3 construct: extracellular domain; also called 2b; FcgRIIb; not shown: His tag at the C terminus
T3 sequence (looked up): T2 sequence (looked up)

B1: GpH7-A5/GpH7-B3 variant S239_01G/GpL16-k0 (antibody, human IgG1, kappa)
heavy 1: not shown
heavy 2: not shown
light: DIVMTQSPLSLPVTPGEPASISCQASESLVHSNRNTYLHWYLQKPGQSPQLLIYKVSNRFSGVPDRFSGSGSGTDFTLKISRVEAEDVGVYYCSQNTHVPPTFGQGTKVEIERTVAAPSVFIFPPSDEQLKSGTASVVCLLNNFYPREAKVQWKVDNALQSGNSQESVTEQDSKDSTYSLSSTLTLSKADYEKHKVYACEVTHQGLSSPVTKSFNRGEC
notes: Heterodimerized anti-glypican-3 IgG1; the substitution stands in the GpH7-B3 chain only; also called He Ab
B2: GpH7-A5/GpH7-B3 variant D265_01G/GpL16-k0 (antibody, human IgG1, kappa)
heavy 1: not shown
heavy 2: not shown
light: B1 light
notes: as for B1
B3: GpH7-A5/GpH7-B3 variant V266_01G/GpL16-k0 (antibody, human IgG1, kappa)
heavy 1: not shown
heavy 2: not shown
light: B1 light
notes: Heterodimerized IgG1 (He Ab); mutation only in the GpH7-B3 chain; also called He Ab V266G
B4: GpH7-A5/GpH7-B3 variant S239_05P/GpL16-k0 (antibody, human IgG1, kappa)
heavy 1: not shown
heavy 2: not shown
light: B1 light
notes: Heterodimerized IgG1 (He Ab); mutation only in the GpH7-B3 chain; also called He Ab S239P
B5: GpH7-A5/GpH7-B3 variant S239_08L/GpL16-k0 (antibody, human IgG1, kappa)
heavy 1: not shown
heavy 2: not shown
light: B1 light
notes: Heterodimerized IgG1 (He Ab); mutation only in the GpH7-B3 chain; also called He Ab S239L
B6: GpH7-A5/GpH7-B3 variant S239_09D/GpL16-k0 (antibody, human IgG1, kappa)
heavy 1: not shown
heavy 2: not shown
light: B1 light
notes: Heterodimerized IgG1 (He Ab); mutation only in the GpH7-B3 chain; also called He Ab S239D
B7: GpH7-A5/GpH7-B3 variant S239_10E/GpL16-k0 (antibody, human IgG1, kappa)
heavy 1: not shown
heavy 2: not shown
light: B1 light
notes: Heterodimerized IgG1 (He Ab); mutation only in the GpH7-B3 chain; also called He Ab S239E
B8: GpH7-A5/GpH7-B3 variant S239_18N/GpL16-k0 (antibody, human IgG1, kappa)
heavy 1: not shown
heavy 2: not shown
light: B1 light
notes: Heterodimerized IgG1 (He Ab); mutation only in the GpH7-B3 chain; also called He Ab S239N
B9: GpH7-A5/GpH7-B3 variant S239_20W/GpL16-k0 (antibody, human IgG1, kappa)
heavy 1: not shown
heavy 2: not shown
light: B1 light
notes: Heterodimerized IgG1 (He Ab); mutation only in the GpH7-B3 chain; also called He Ab S239W
B10: GpH7-A5/GpH7-B3 variant V266_04F/GpL16-k0 (antibody, human IgG1, kappa)
heavy 1: not shown
heavy 2: not shown
light: B1 light
notes: Heterodimerized IgG1 (He Ab); mutation only in the GpH7-B3 chain; also called He Ab V266F
B11: GpH7-A5/GpH7-B3 variant V266_06M/GpL16-k0 (antibody, human IgG1, kappa)
heavy 1: not shown
heavy 2: not shown
light: B1 light
notes: Heterodimerized IgG1 (He Ab); mutation only in the GpH7-B3 chain; also called He Ab V266M
B12: GpH7-A5/GpH7-B3 variant V266_07I/GpL16-k0 (antibody, human IgG1, kappa)
heavy 1: not shown
heavy 2: not shown
light: B1 light
notes: Heterodimerized IgG1 (He Ab); mutation only in the GpH7-B3 chain; also called He Ab V266I
B13: GpH7-A5/GpH7-B3 variant V266_08L/GpL16-k0 (antibody, human IgG1, kappa)
heavy 1: not shown
heavy 2: not shown
light: B1 light
notes: Heterodimerized IgG1 (He Ab); mutation only in the GpH7-B3 chain; also called He Ab V266L
B14: GpH7-A5/GpH7-B3 variant V266_09D/GpL16-k0 (antibody, human IgG1, kappa)
heavy 1: not shown
heavy 2: not shown
light: B1 light
notes: Heterodimerized IgG1 (He Ab); mutation only in the GpH7-B3 chain; also called He Ab V266D

target: T4, FcγRIIIa extracellular domain with C-terminal His tag (human, UniProt P08637 17-208); assay: SPR; He/Con_3a divided by He/Con_2b (binding to FcγRIIb is the reference)
T4 construct: extracellular domain; also called FcgRIIIa; 3a; not shown: His tag at the C terminus
Description: (§1) Analysis of interaction between objective antibody and the FcγR was carried out using Biacore T100 (GE Healthcare). HBS-EP+ (GE Healthcare) was used as the running buffer, and the measurement temperature was set to 25° C. Chips produced by immobilizing the antigen peptide by the amine coupling method to a Series S Sencor Chip CM5 (GE Healthcare), or alternatively, chips produced by allowing preliminarily biotinylated antigen peptides to interact with and immobilize onto a Series S Sensor Chip SA (certified) (GE Healthcare) were used. Antibodies of interest were captured onto an antigen peptide-immobilized chip, and allowed to interact to each FcγR diluted with running buffer. To regenerate and repeatedly use the chip, the antibodies captured on the chip were washed off by reacting 10 mM glycine-HCl, pH 1.5.
(§2) The FcγR-binding activity of each antibody was assessed primarily using as an indicator the FcγR-binding activity and dissociation constant for FcγR.

T4 sequence (P08637 17-208): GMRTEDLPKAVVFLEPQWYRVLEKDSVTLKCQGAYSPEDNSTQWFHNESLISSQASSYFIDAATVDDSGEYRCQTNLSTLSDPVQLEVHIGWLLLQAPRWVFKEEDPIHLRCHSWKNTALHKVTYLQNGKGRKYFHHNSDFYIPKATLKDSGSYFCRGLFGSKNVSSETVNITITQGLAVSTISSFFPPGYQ

Row | Binder | He_3a/2b (IIIa/IIb)
1 | B1 | 0.53 ratio
2 | B2 | 0.28 ratio

target: T1, FcγRIIa H (FcγRIIa type H, His at …); assay: ratio of He/Con_2aH (FcγRIIa H) to He/Con_2b (FcγRIIb), SPR relative binding
Description: (§3) The heterodimerized antibodies He Abs in which one of the H chains was introduced with an alteration were assayed for their binding activities to each activating FcγR and inhibitory FcγR according to the method described in Example 4. […] The activating FcγRs in FIGS. 26, 27, 28, and 29 are FcγRIa, FcγRIIa (R), FcγRIIa (H), and FcγRIIIa, respectively.
as §1

Row | Binder | He_2aH/2b (IIaH/IIb ratio)
3 | B3 | 0.71
4 | B4 | 0.33
5 | B5 | 0.75
6 | B6 | 0.56
7 | B7 | 0.62
8 | B8 | 0.79
9 | B9 | 0.78
10 | B10 | 0.44
11 | B11 | 0.33
12 | B12 | 0.69
13 | B13 | 0.44
14 | B14 | 0.63

target: T4, FcγRIIIa extracellular domain with …; assay: SPR (Biacore), antibody captured on antigen peptide chip, FcγR as analyte; relative binding amount
Description: as §1, §2

Row | Binder | He/Con_3a
15 | B1 | 76.2 % of GpH7-A5/GpH7-B3/GpL16-k0 (=100)
16 | B2 | 4.5 % of GpH7-A5/GpH7-B3/GpL16-k0 (=100)

target: T2, FcγRIIb extracellular domain with …; assay: as above
Description: as §1, §2

Row | Binder | He/Con_2b
17 | B1 | 144 % of GpH7-A5/GpH7-B3/GpL16-k0 (=100)
18 | B2 | 16.1 % of GpH7-A5/GpH7-B3/GpL16-k0 (=100)

target: T1, FcγRIIa H (FcγRIIa type H, His at …); assay: SPR (Biacore), antibody captured on antigen-peptide chip, FcγR as analyte; GpH7-A5/GpH7-B3/GpL16-k0 = 100
Description: as §3, §1

Row | Binder | He/Con_2aH (relative binding activity)
19 | B3 | 36.7 % of control
20 | B4 | 33.3 % of control
21 | B5 | 105 % of control
22 | B6 | 114 % of control
23 | B7 | 112 % of control
24 | B8 | 94.2 % of control
25 | B9 | 35.2 % of control
26 | B10 | 25.3 % of control
27 | B11 | 83.9 % of control
28 | B12 | 106 % of control
29 | B13 | 104 % of control
30 | B14 | 6.4 % of control

target: T3, FcγRIIb, extracellular domain with …; assay: as above
Description: as §3, §1

Row | Binder | He/Con_2b (relative binding activity)
31 | B3 | 51.5 % of control
32 | B4 | 102 % of control
33 | B5 | 140 % of control
34 | B6 | 206 % of control
35 | B7 | 181 % of control
36 | B8 | 119 % of control
37 | B9 | 45.1 % of control
38 | B10 | 57.6 % of control
39 | B11 | 251 % of control
40 | B12 | 152 % of control
41 | B13 | 236 % of control
42 | B14 | 10.1 % of control

Reference: patent publication US20180155451A1 (published 2018)
